Test results published in article PMC4089488 (Acta Crystallographica Section D: Biological Crystallography, 2014).
Where a chain is given by its changes, count along the chain named. Names may count otherwise.

B1: RASSF5 SARAH domain double mutant (E388A and K398A) (domain or fragment)
chain: EVEWDAFSIPELQNFLTILEKEAQDKIQQVQKAYDKFRQKLEEALRESQGKPG
B2: human RASSF5 SARAH domain (residues 366–418) (domain or fragment, UniProt Q8WWW0 366-418, looked up)
chain: B1 chain with A23E, A33K
B3: human MST2 SARAH domain (residues 436–484) (domain or fragment, UniProt Q13188 436-484, looked up)
chain: DFDFLKNLSLEELQMRLKALDPMMEREIEELRQRYTAKRQPILDAMDAK
notes: mammalian sterile 20-like kinase 2 (MST2, KRS-1), human, 491 residues, SARAH domain residues 436-484; Forms a homodimer (one homodimer in the asymmetric unit); also called KRS-1; hMST2; source: E. coli BL21, GST fusion protein, purified as described previously (Hwang et al., 2010)
B4: human MST1 SARAH domain (residues 432–480) (domain or fragment, UniProt Q13043 432-480, looked up)
chain: DYEFLKSWTVEDLQKRLLALDPMMEQEIEEIRQKYQSKRQPILDAIEAK
notes: mammalian sterile 20-like kinase 1 (MST1, KRS-2), human, 487 residues, SARAH domain residues 432-480; A selenomethionine-labelled form (E. coli B834 (DE3)) was used for SAD phasing; also called KRS-2; hMST1; source: E. coli BL21, GST fusion protein, purified as described previously (Hwang et al., 2007)

How the values were obtained:
[1] = target: T1, human MST1 SARAH domain (residues 432–480) (human) (UniProt Q13043)
T1 sequence: B4 chain

[2] = target: B4; experiment: cell-based or functional assay
[3] = target: B2; experiment: NMR titration; MST2 SARAH homodimer titrated with the RASSF5 SARAH domain in solution (Supplementary Fig. S7); details: both partners purified
[4] = target: the molecule itself; experiment: crystal structure; MST2 SARAH homodimer, 40 mg/ml; hanging drop, 20°C, 2.0 M NaCl, 8% PEG 6000; space group P4(1)2(1)2, one homodimer in the asymmetric unit; molecular replacement
[5] = target: the molecule itself; experiment: cell-based or functional assay
[6] = target: B2; experiment: crystal structure; MST1–RASSF5 SARAH heterodimer (domains mixed 1:2, heterodimer separated on Superdex 75 in 25 mM HEPES pH 7.0, 100 mM NaCl, 2 mM DTT); hanging drop, 20°C, 35% MPD, acetate pH 4.8; space group C222(1), one heterodimer in the asymmetric unit; SAD phasing with SeMet MST1; details: both partners purified

## B1
[1]
  transition concentration (C m) of urea, urea-induced denaturation of the double-mutant SARAH heterodimer followed by CD at 222 nm: 3.2 M

## B2
[2]
  free energy of unfolding of the heterodimer, urea-induced denaturation followed by CD, two-state fit: 4.8 kcal/mol

## B3
[3]
  binding result: binds
[4]
  binding result: binds

## B4
[5]
  free energy of unfolding of the homodimer, urea-induced denaturation followed by CD, two-state fit: 2 kcal/mol
[6]
  binding result: binds
